Measured values reported in patent US20200399314A1 (MEDIKINE, published 2020).
Bridge positions count the residues as written; N and C are the ends. Ends that are not written are not given here.

T1: human IL-2Rα subunit (human, UniProt P01589 22-213, limits assumed)
T1 construct: also called CD25
T1 sequence (looked up): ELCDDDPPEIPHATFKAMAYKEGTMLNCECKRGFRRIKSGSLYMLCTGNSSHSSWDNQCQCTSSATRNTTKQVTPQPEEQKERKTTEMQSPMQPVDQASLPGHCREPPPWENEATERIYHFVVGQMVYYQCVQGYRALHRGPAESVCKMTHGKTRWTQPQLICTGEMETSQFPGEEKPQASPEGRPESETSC


Molecular target: T1, human IL-2Rα subunit

IC50	Binder
< 100 µM	VKCFMSTPGQIAYCTT [SEQ ID NO 223]
< 100 µM	LVFCGKNGCHSG [SEQ ID NO 21]
< 100 µM	WCWEPHDQYYVRCP [SEQ ID NO 232]
< 100 µM	TDCQETWPGDRPWCHI [SEQ ID NO 222]
< 100 µM	KCRLRQMSRGGWECL [SEQ ID NO 199]
< 100 µM	DCLDLRGTVGMVCQ [SEQ ID NO 227]
< 100 µM	ACWRSWRYPTRTFCS [SEQ ID NO 198]
< 100 µM	PCQRLAEYYSQQCL (disulfide 2-13 (inferred)) [SEQ ID NO 228]
< 100 µM	RCTLRFDAQTGWECN [SEQ ID NO 202]
< 100 µM	RCRLQKAGGNTWECI [SEQ ID NO 201]
< 100 µM	WCVGQPLYRLGSCK (disulfide 2-13 (inferred)) [SEQ ID NO 238]
< 100 µM	FLPWPVYFSQVLGGG [SEQ ID NO 240]
< 100 µM	YVMCSAFGCKSI [SEQ ID NO 241]
< 100 µM	HGCTLTKPGAEWVCSF [SEQ ID NO 218]
< 100 µM	STCRMGNPGGVWGCYF (disulfide 3-14 (inferred)) [SEQ ID NO 193]
< 100 µM	VKCYRNSPGVEAYCVG (disulfide 3-14 (inferred)) [SEQ ID NO 224]
< 100 µM	IRFCLRSEPTACWIV [SEQ ID NO 54]
< 100 µM	KRFCLRSEPTACWTV [SEQ ID NO 64]
< 100 µM	HVICSVNGGCRG [SEQ ID NO 242]
< 100 µM	VRCRLARPGLTWECLS [SEQ ID NO 210]
< 100 µM	VTCYRAVPGVEAYCFS [SEQ ID NO 212]
< 100 µM	THCLVQWPGPVVACRS [SEQ ID NO 194]
< 100 µM	VYCRREKPGGEMHCRS [SEQ ID NO 213]
< 100 µM	FVLCGLQGCRGS [SEQ ID NO 19]

Second part, the binder before the results:

Binder	IC50
VVLCTPKGCRSA [SEQ ID NO 22]	< 100 µM
TCRLKRSGPNSWECI [SEQ ID NO 203]	< 100 µM
QLCPWSDPGSWGPCPL [SEQ ID NO 219]	< 100 µM
TCESLARMYNENCI [SEQ ID NO 231]	< 100 µM
VRCFMSEPGRVSYCTA [SEQ ID NO 209]	< 100 µM
GCQLVWQDDSYMCFY [SEQ ID NO 234]	< 100 µM
YCHDFKGTVGTLCI (disulfide 2-13 (inferred)) [SEQ ID NO 233]	< 100 µM
NCRVRHLPYPFWSCL [SEQ ID NO 200]	< 100 µM
ATCHLLAPGVDNTCIF [SEQ ID NO 217]	< 100 µM
VRCRVLYPGQMAVCVS [SEQ ID NO 211]	< 100 µM
RDCFILEPGTSVYCDL [SEQ ID NO 221]	< 100 µM
SSCTLFNPGTGWTCVF [SEQ ID NO 192]	< 100 µM
SCMDLKGSVGWVCD [SEQ ID NO 229]	< 100 µM
RRFCLRSEPTACWIV [SEQ ID NO 59]	< 100 µM
RRFCLRSEPTACWTV (disulfide 4-12 (inferred)) [SEQ ID NO 66]	< 100 µM
RRFCLRSDPTACWIV [SEQ ID NO 63]	< 100 µM
MRFCLRSEPTACWTV [SEQ ID NO 61]	< 100 µM
RRFCLRSEPTACWDV [SEQ ID NO 62]	< 100 µM
RRFCLRSEPMACWTV (disulfide 4-12 (inferred)) [SEQ ID NO 65]	< 100 µM
TCESLAKMYEVECN [SEQ ID NO 230]	< 100 µM
KVICGWDGCR [SEQ ID NO 20]	< 100 µM
VKCKLVNPGSGWACHF (disulfide 3-14 (inferred)) [SEQ ID NO 208]	< 100 µM
WCIGQPLFRQGSCK [SEQ ID NO 237]	< 100 µM
TRCRLLKLGSLWECFG [SEQ ID NO 195]	< 100 µM
TCTVHRIGLAEWECV (disulfide 2-14 (inferred)) [SEQ ID NO 204]	< 100 µM
RDCAGMEPGTSVFCDN [SEQ ID NO 220]	< 100 µM
WDQFQLGWEAGVAA [SEQ ID NO 239]	< 100 µM
